These results are taken from PMC10033635.

This experiment concerns the target African cichlid nackednavirus capsid protein (African cichlid nackednavirus (ACNDV)). The experiment can be described thus: cryo-EM structure; capsids assembled in E. coli and purified; TRIS buffer (50 mM TRIS, 50 mM NaCl, 5 mM EDTA, 5 mM DTT), pH 7.5; icosahedral symmetry imposed.

Take “African cichlid nackednavirus capsid protein (natural protein)”: the stoichiometry N (protein dimers) is 90.
